B1: 410_01_C03 (bispecific antibody)
chain: DIQLTQTPASLAVSLGQRATISCKASQSVDYDGDSYLNWYQQIPGQPPKLLIYDASNLVSGIPPRFSGSGSGTDFTLNIHPVEKVDAATYHCQQSTEDPWTFGGGTKLEIKGGSGGAMAQVQLQQWGAGLLKPSETLSLTCAVYGGSFSGYYWSWIRQPPGKGLEWIGEINHSGSTNYNPSLKSRVTISVDTSKNQFSLKLSSVTAADTAVYYCARATRNGAFDYWGQGTLVTVSSGGGGSGGGGSGGGASNFMLTQPHSVSESPGKTVTISCTRSSGRIASNYVQWYQQRPGSSPTTVIYEDNQRPSGVPDRFSGSIDSSSNSASLTISGLKTEDEADYYCQSYDSSNVVFGGGTQLTVLGQPAAAGGGGSQVQLQQSGAELVRPGSSVKISCKASGYAFSSYWMNWVKQRPGQGLEWIGQIWPGDGDTNYNGKFKGKATLTADESSSTAYMQLSSLASEDSAVYFCARRETTTVGRYYYAMDYWGQGTSVTVSSASAAVECPPCPAPPVAGPSVFLFPPKPKDTLMISRTPEVTCVVVDVSHEDPEVQFNWYVDGVEVHNAKTKPREEQFNSTFRVVSVLTVVHQDWLNGKEYKCKVSNKGLPAPIEKTISKTKGQPREPQVYTLPPSREEMTKNQVSLTCLVKGFYPSDIAVEWESNGQPENNYKTTPPMLDSDGSFFLYSKLTVDKSRWQQGNVFSCSVMHEALHNHYTQKSLSLSPGK
B2: 418_03_H01 (bispecific antibody)
chain: DIQLTQTPASLAVSLGQRATISCKASQSVDYDGDSYLNWYQQIPGQPPKLLIYDASNLVSGIPPRFSGSGSGTDFTLNIHPVEKVDAATYHCQQSTEDPWTFGGGTKLEIKGGSGGAMAQVQLQQWGAGLLKPSETLSLTCAVYGGSFSRYYWSWIRQSPGKGLEWIGEIKHRGRTNYNPSLKSRVTMSVDTSKNQFSLQLRSVTAADTAVYYCARVYSSGWFSYWGQGTLVTVSSGGGGSGGGGSGGGASNFMLTQPHSVSESPGKTVTISCTRSSGSIARNYVQWYQQRPGSAPTTVIYEDNQRPSGVPDRFSGSIDSSSNSASLTISGLKTEDEADYYCQSYDGSNWVFGGGTKVTVLGQPAAAGGGGSQVQLQQSGAELVRPGSSVKISCKASGYAFSSYWMNWVKQRPGQGLEWIGQIWPGDGDTNYNGKFKGKATLTADESSSTAYMQLSSLASEDSAVYFCARRETTTVGRYYYAMDYWGQGTSVTVSSASAAVECPPCPAPPVAGPSVFLFPPKPKDTLMISRTPEVTCVVVDVSHEDPEVQFNWYVDGVEVHNAKTKPREEQFNSTFRVVSVLTVVHQDWLNGKEYKCKVSNKGLPAPIEKTISKTKGQPREPQVYTLPPSREEMTKNQVSLTCLVKGFYPSDIAVEWESNGQPENNYKTTPPMLDSDGSFFLYSKLTVDKSRWQQGNVFSCSVMHEALHNHYTQKSLSLSPGK
B3: 309_01_G04 (bispecific antibody)
chain: DIQLTQTPASLAVSLGQRATISCKASQSVDYDGDSYLNWYQQIPGQPPKLLIYDASNLVSGIPPRFSGSGSGTDFTLNIHPVEKVDAATYHCQQSTEDPWTFGGGTKLEIKGGSGGAMAEVQLVESGGGVVQPGRSLRLSCAASGFTVSSNYMSWVRQAPGKGLEWVSAISGSGGSTYYADSVKGRFTTSRDNSKNTLYLQMNSLRAEDTAIYYCAKEDYYGGYFDYWGQGTMVTVSSGGGGSGGGGSGGGASNFMLTQPHSVSESPGKTVTISCTRSSGSIASNYVQWYQQRPGSSPTTVIYEDNQRPSGVPDRFSGSIDSSSNSASLTISGLKTEDEADYYCQSYDSSNQAVFGGGTKVTVLGQPAAAGGGGSQVQLQQSGAELVRPGSSVKISCKASGYAFSSYWMNWVKQRPGQGLEWIGQIWPGDGDTNYNGKFKGKATLTADESSSTAYMQLSSLASEDSAVYFCARRETTTVGRYYYAMDYWGQGTSVTVSSASAAVECPPCPAPPVAGPSVFLFPPKPKDTLMISRTPEVTCVVVDVSHEDPEVQFNWYVDGVEVHNAKTKPREEQFNSTFRVVSVLTVVHQDWLNGKEYKCKVSNKGLPAPIEKTISKTKGQPREPQVYTLPPSREEMTKNQVSLTCLVKGFYPSDIAVEWESNGQPENNYKTTPPMLDSDGSFFLYSKLTVDKSRWQQGNVFSCSVMHEALHNHYTQKSLSLSPGK
B4: 410_01_C09 (bispecific antibody)
chain: DIQLTQTPASLAVSLGQRATISCKASQSVDYDGDSYLNWYQQIPGQPPKLLIYDASNLVSGIPPRFSGSGSGTDFTLNIHPVEKVDAATYHCQQSTEDPWTFGGGTKLEIKGGSGGAMAEVQLVQSGAEVKKPGASVKVSCKASGYTFTSYYMYWVRQAPGQGLEWMGRINPNSGGTNYAQKFQGRVTMTRDTSISTAYMELSRLRSDDTAVYYCARPSRYSNYVDWGQGTLVTVSSGGGGSGGGGSGGGASNFMLTQPHSVSESPGKTVTISCTRSSGSIASNYVQWYQQRPGSSPTTVIYEDNQRPSGVPDRFSGSIDSSSNSASLTISGLKTEDEADYYCQSYDSRWIWVSGGGTKVTVLGQPAAAGGGGSQVQLQQSGAELVRPGSSVKISCKASGYAFSSYWMNWVKQRPGQGLEWIGQIWPGDGDTNYNGKFKGKATLTADESSSTAYMQLSSLASEDSAVYFCARRETTTVGRYYYAMDYWGQGTSVTVSSASAAVECPPCPAPPVAGPSVFLFPPKPKDTLMISRTPEVTCVVVDVSHEDPEVQFNWYVDGVEVHNAKTKPREEQFNSTFRVVSVLTVVHQDWLNGKEYKCKVSNKGLPAPIEKTISKTKGQPREPQVYTLPPSREEMTKNQVSLTCLVKGFYPSDIAVEWESNGQPENNYKTTPPMLDSDGSFFLYSKLTVDKSRWQQGNVFSCSVMHEALHNHYTQKSLSLSPGK
B5: 309_01_G12 (bispecific antibody)
chain: DIQLTQTPASLAVSLGQRATISCKASQSVDYDGDSYLNWYQQIPGQPPKLLIYDASNLVSGIPPRFSGSGSGTDFTLNIHPVEKVDAATYHCQQSTEDPWTFGGGTKLEIKGGSGGAMAEVQLVQSGAEVKKPGASVKVSCKASGYTFTGYYMHWVRQAPGQGLEWMGRINPNSGGTNYAQKFQGRVTMTRDTSISTAYMELSRLRSDDAAVYYCARPSRYSNYVDWGQGTTVTVSSGGGGSGGGGSGGGASNFMLTQPHSVSESPGKTVTISCTRSSGSIASNYVQWYQQRPGSAPTTVIYDDDQRPSGVPDRFSGSIDRSSNSASLTISGLKTEDEADYYCQSYDNTNPWVFGGGTKLTVLGQPAAAGGGGSQVQLQQSGAELVRPGSSVKISCKASGYAFSSYWMNWVKQRPGQGLEWIGQIWPGDGDTNYNGKFKGKATLTADESSSTAYMQLSSLASEDSAVYFCARRETTTVGRYYYAMDYWGQGTSVTVSSASAAVECPPCPAPPVAGPSVFLFPPKPKDTLMISRTPEVTCVVVDVSHEDPEVQFNWYVDGVEVHNAKTKPREEQFNSTFRVVSVLTVVHQDWLNGKEYKCKVSNKGLPAPIEKTISKTKGQPREPQVYTLPPSREEMTKNQVSLTCLVKGFYPSDIAVEWESNGQPENNYKTTPPMLDSDGSFFLYSKLTVDKSRWQQGNVFSCSVMHEALHNHYTQKSLSLSPGK
B6: 418_03_E12 (bispecific antibody)
chain: DIQLTQTPASLAVSLGQRATISCKASQSVDYDGDSYLNWYQQIPGQPPKLLIYDASNLVSGIPPRFSGSGSGTDFTLNIHPVEKVDAATYHCQQSTEDPWTFGGGTKLEIKGGSGGAMAQVQLVESGGGVVQPGRSLRLSCAASGFTFSSYGMHWVRQAPGKGLEWVSSISSSSSYIYYADSVKGRFTISRDNAKNSLYLQMNSLRADDTAVYYCARRSFSSVFADYWGQGTLVTVSSGGGGSGGGGSGGGASNFMLTQPHSVSESPGKTVTISCTRSRGSIASNYVQWYQQRPGRAPTIVIFDDDQRPSGVPDRFSGSIDRSSDSASLRISGLKTEDEADYYCQSYATRSQSVVFGGGTKLTVLGQPAAAGGGGSQVQLQQSGAELVRPGSSVKISCKASGYAFSSYWMNWVKQRPGQGLEWIGQIWPGDGDTNYNGKFKGKATLTADESSSTAYMQLSSLASEDSAVYFCARRETTTVGRYYYAMDYWGQGTSVTVSSASAAVECPPCPAPPVAGPSVFLFPPKPKDTLMISRTPEVTCVVVDVSHEDPEVQFNWYVDGVEVHNAKTKPREEQFNSTFRVVSVLTVVHQDWLNGKEYKCKVSNKGLPAPIEKTISKTKGQPREPQVYTLPPSREEMTKNQVSLTCLVKGFYPSDIAVEWESNGQPENNYKTTPPMLDSDGSFFLYSKLTVDKSRWQQGNVFSCSVMHEALHNHYTQKSLSLSPGK
B7: 309_01_A02 (bispecific antibody)
chain: DIQLTQTPASLAVSLGQRATISCKASQSVDYDGDSYLNWYQQIPGQPPKLLIYDASNLVSGIPPRFSGSGSGTDFTLNIHPVEKVDAATYHCQQSTEDPWTFGGGTKLEIKGGSGGAMAEVQLVESGGGLVKPGGSLRLSCAASGFTFSSYSMNWVRQAPGKGLEWVSSISSSSSYIYYADSVKGRFTISRDNAKNSLYLQMNSLRAEDTAVYYCARSSRIQAGMDVWGQGTLVTVSSGGGGSGGGGSGGGASNFMLTQPHSVSESPGKTVTISCTRSSGTIASTYVQWYQQRPGSSPTTVIYEDNQRPSGVPDRFSGSIDSSSNSASLTISGLKTEDAADYFCQSYDSNNRVFGGGTKVTVLGQPAAAGGGGSQVQLQQSGAELVRPGSSVKISCKASGYAFSSYWMNWVKQRPGQGLEWIGQIWPGDGDTNYNGKFKGKATLTADESSSTAYMQLSSLASEDSAVYFCARRETTTVGRYYYAMDYWGQGTSVTVSSASAAVECPPCPAPPVAGPSVFLFPPKPKDTLMISRTPEVTCVVVDVSHEDPEVQFNWYVDGVEVHNAKTKPREEQFNSTFRVVSVLTVVHQDWLNGKEYKCKVSNKGLPAPIEKTISKTKGQPREPQVYTLPPSREEMTKNQVSLTCLVKGFYPSDIAVEWESNGQPENNYKTTPPMLDSDGSFFLYSKLTVDKSRWQQGNVFSCSVMHEALHNHYTQKSLSLSPGK
B8: 418_01_C05 (bispecific antibody)
chain: DIQLTQTPASLAVSLGQRATISCKASQSVDYDGDSYLNWYQQIPGQPPKLLIYDASNLVSGIPPRFSGSGSGTDFTLNIHPVEKVDAATYHCQQSTEDPWTFGGGTKLEIKGGSGGAMAEVQLVESGGGVVQPGRSLRLSCAASGFTFSSYGMHWVRQAPGKGLEWVSYINSRSSTIYYADSVKGRFTISRDNAKNSLYLQMNSLRDEDTAVYYCAKDKPLSGYAFDIWGQGTTVTVSSGGGGSGGGGSGGGASNFMLTQPHSVSESPGKTVTISCTRSSGSIASNFVQWYQQRPGRAPTIVIFDDDQRPSGVPDRFSGSIDRSSDSASLSISGLKTEDEADYYCQSYATRTQGVVFGGGTKVTVLGQPAAAGGGGSQVQLQQSGAELVRPGSSVKISCKASGYAFSSYWMNWVKQRPGQGLEWIGQIWPGDGDTNYNGKFKGKATLTADESSSTAYMQLSSLASEDSAVYFCARRETTTVGRYYYAMDYWGQGTSVTVSSASAAVECPPCPAPPVAGPSVFLFPPKPKDTLMISRTPEVTCVVVDVSHEDPEVQFNWYVDGVEVHNAKTKPREEQFNSTFRVVSVLTVVHQDWLNGKEYKCKVSNKGLPAPIEKTISKTKGQPREPQVYTLPPSREEMTKNQVSLTCLVKGFYPSDIAVEWESNGQPENNYKTTPPMLDSDGSFFLYSKLTVDKSRWQQGNVFSCSVMHEALHNHYTQKSLSLSPGK

Target: human CD3 receptor complex (human, UniProt P07766 23-207; P09693 23-182; P04234 22-171)
Test: cell-based or functional assay

Chain of human CD3 receptor complex (P07766 23-207, chain 1 of 3): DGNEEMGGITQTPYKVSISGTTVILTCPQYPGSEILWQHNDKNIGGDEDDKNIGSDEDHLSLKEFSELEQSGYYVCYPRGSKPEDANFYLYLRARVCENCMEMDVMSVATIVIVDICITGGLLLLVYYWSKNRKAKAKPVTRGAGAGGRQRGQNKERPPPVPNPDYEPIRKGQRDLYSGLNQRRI
Chain of human CD3 receptor complex (P09693 23-182, chain 2 of 3): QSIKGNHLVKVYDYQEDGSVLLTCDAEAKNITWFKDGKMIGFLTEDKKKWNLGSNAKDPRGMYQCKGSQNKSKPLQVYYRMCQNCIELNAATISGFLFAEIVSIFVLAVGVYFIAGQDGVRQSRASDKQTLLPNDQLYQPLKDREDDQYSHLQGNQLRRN
Chain of human CD3 receptor complex (P04234 22-171, chain 3 of 3): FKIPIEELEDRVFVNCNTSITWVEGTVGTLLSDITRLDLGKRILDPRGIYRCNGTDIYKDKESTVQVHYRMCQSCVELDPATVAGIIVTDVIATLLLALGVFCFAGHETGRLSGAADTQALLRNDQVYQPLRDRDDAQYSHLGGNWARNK

Which “Activity (EC50 for activation of Jurkat line cells, pM)” value (“Activity” below) does the source give for B1 here?
Its value is 3 pM.

For B2, which “Activity” value is on record?
The value was 4.3 pM.

For B3, which “Activity” value is on record?
Its value is 2 pM.

How did the “Activity” value turn out when B4 was run?
The value was 2.2 pM.

With B5 as the binder, how does the “Activity” value read?
The value was 13.8 pM.

B6 was tested. Which “Activity” value did it give?
Its value is 1 pM.

Which “Activity” value does the source give for B7 here?
The value was 7.9 pM.

With B8 as the binder, how does the “Activity” value read?
The value was 1.5 pM.
